Data reported in article PMC3212032.
Where “and” joins values, the source holds several entries; their conditions need not be identical. Equal entries are not always repeated. Where two headings read alike, the source gives them in different places.

Key:
[1] = target: wt HIV-1 integrase (pNY strain) (human immunodeficiency virus type-1 (pNY strain)); assay: cross-linking
[2] = target: wt HIV-1 integrase (pNY strain) (human immunodeficiency virus type-1 (pNY strain)); assay: cross-linking; remark: listed apart in the source
[3] = target: wt HIV-1 integrase (pNY strain) (human immunodeficiency virus type-1 (pNY strain)); assay: SEC
[4] = target: wt Rous sarcoma virus integrase (286 residues) (Rous sarcoma virus); assay: SEC
[5] = target: wt Rous sarcoma virus integrase (286 residues) (Rous sarcoma virus); assay: SEC; remark: listed apart in the source
[6] = target: HIV-1 integrase F185K (pNY strain) (human immunodeficiency virus type-1 (pNY strain)); assay: SEC
[7] = target: HIV-1 integrase F185K (pNY strain) (human immunodeficiency virus type-1 (pNY strain)); assay: SEC; remark: listed apart in the source

“wt HIV-1 integrase (pNY strain) (enzyme)” was tested, and the stoichiometry N [1] was 2 and 3 and 4, the stoichiometry N [2] was 2 and the stoichiometry N [3] was 4.

For “wt Rous sarcoma virus integrase (286 residues) (enzyme)”, the stoichiometry N [4] was 2 and 4 and the stoichiometry N [5] was 2 and 4.

With “HIV-1 integrase F185K (pNY strain) (enzyme)” the stoichiometry N [6] was 2, the percent converted to tetramers [7] was 65% and the stoichiometry N [7] was 2 and 4.
